Assay results: patent US20240189443A1, “PD-L1 AND TLR7 DOUBLE-TARGETING NANOBODY COUPLING DRUG AND USE THEREOF IN ANTI-TUMOR” (SHANGHAI INSTITUTE OF MATERIA MEDICA, CHINESE ACADEMY OF …, priority 2021, published 2024)
Where “and” joins values, the source holds several entries; their conditions need not be identical. Identical values can stand only once.

B1: Nb10: anti-PD-L1 nanobody, VHH SEQ ID NO: 9 (protein)
VHH: QVQLQESGGGSVQAGGSLRLSCAASGYRFCRLAMRWYRQAPGKEREFVSFIDSGGTTSYADSVKGRFTISRDSAKNTVYLQMNSLKPEDTGMYYCNSDILGGGGGCPVSSYWGQGTQVTVSS
modifications: Nb10 Amino acid sequence of VHH
B2: Nb9: anti-PD-L1 nanobody, VHH SEQ ID NO: 5 (protein)
VHH: QVQLQESGGGLVHPGGSLRLSCAASGFTFSSYTMRWVRQAPGKGLEWVSGINNVGGSTLYADSVKGRFTISRDNAKNTLYLQMNSLQPDDTAMYYCATGIIGSGLETATYRGQGTQVTVSS
modifications: Nb9 Amino acid sequence of VHH
B3: Nb11: anti-PD-L1 nanobody, VHH SEQ ID NO: 13 (protein)
VHH: QVQLQESGGGSVQAEGSLRLSCSAPIYVTYYGTYCMGWFRQAPGKEREGVAGISGDGRTSYADSVKGRFTVSKDNAKNTLYLEMNSLKPEDTAMYYCALRIGGYCDTLNGADFRYWGQGTQVTVSS
modifications: Nb11 Amino acid sequence of VHH
B4: Nb17: anti-PD-L1 nanobody, VHH SEQ ID NO: 17 (protein)
VHH: QVQLQESGGGSVQAGGSLRLSCAASGYSARRRMGWFRQAPGKEREGVASIYTAGGRTWYADSVKGRFTISQDNAKNTVYLQMNSLKPDDTAMYYCAASPAPYGAESLSEADFAYWGQGTQVTVSS
modifications: Nb17 Amino acid sequence of VHH
B5: h_Nb5: anti-human PD-L1 nanobody, VHH SEQ ID NO: 33 (protein)
VHH: DVQLQESGGGAVQSGESLRLSCAASGRDLMFYDVAWFRQAPGKEREGVSYIRSSGTLTKYADSVKGRFTISRDNDKNTVSLQMNSLNPEDTAKYYCAARLQSATSHSDLREDEFNSWGQGTQVTVSS
modifications: h_Nb5 Amino acid sequence of VHH
B6: h_Nb6: anti-human PD-L1 nanobody, VHH SEQ ID NO: 37 (protein)
VHH: DVQLQESGGGLAQPGGSLRLSCAASGFTFSSYAMSWARQAPGKGLEWVAGIYRGGSDTYYADSVKGRFTISRDNTKNTLYLQMNSLKPEDTALYYCIQGWGLGYANYDYWGQGTQVTVSS
modifications: h_Nb6 Amino acid sequence of VHH
B7: h_Nb4: anti-human PD-L1 nanobody, VHH SEQ ID NO: 29 (protein)
VHH: DVQLQESGGGLVQAGGSLRLSCAAPSRMFSGYTMGWYRQAPGKQRELVAQIANGGFTDYIDSVKGRFSISRDTVLNMMYLQMNSLKPEDTAVYYCNLVLVNGIPTRNWGQGTQVTVSS
modifications: h_Nb4 Amino acid sequence of VHH
B8: h_Nb12: anti-human PD-L1 nanobody, VHH SEQ ID NO: 44 (protein)
VHH: DVQLQESGGGLVQAGGSLRLSCAASGRTFSSRAMGWFRQAPGKEREFVAAISGSGRNTYYADSVKGRFTISRDNAKNSVNLQMNSLKPEDTAVYYCNAAGGGITIATMTQRTQYDYWGQGTQVTVSS
modifications: h_Nb12 Amino acid sequence of VHH
B9: h_Nb9: anti-human PD-L1 nanobody, VHH SEQ ID NO: 40 (protein)
VHH: DVQLQESGGGLVQPGGSLRLSCASSGSIFGLGVKGWYRQPPGNQREMVAQIISGGRISYADSVKGRFTISRDNAKNTVYLQMNSLKPEDTAVYYCNAWGPGQRNYWGRGTQVTVSS
modifications: h_Nb9 Amino acid sequence of VHH
B10: h_Nb13: anti-human PD-L1 nanobody, VHH SEQ ID NO: 48 (protein)
VHH: DVQLQESGGGLVQPGGSLRLSCAASGSIFSINAMGWYRQAPGKSRELVAAITSGGSTNYADSVKGRFTISRDTAKNTVYLLMNSLEPEDTAVYYCNVERRRPPHYLSEYDFDWGQGTQVTVSS
modifications: h_Nb13 Amino acid sequence of VHH
B11: h_Nb26: anti-human PD-L1 nanobody, VHH SEQ ID NO: 56 (protein)
VHH: DVQLQESGGGLVQPGGSLRLSCAAPGSIFRINAMGWYRQAPGKQRELVAAITSGGSTNYADSVQGRFTISRDNAKNTVYLQMNSLKPEDTAVYYCNVERRRPPHYYSDYDFDWGQGTQVTVSS
modifications: h_Nb26 Amino acid sequence of VHH
B12: anti-human PD-L1 nanobody h_Nb4 (Fc fusion)
chain: DVQLQESGGGLVQAGGSLRLSCAAPSRMFSGYTMGWYRQAPGKQRELVAQIANGGFTDYIDSVKGRFSISRDTVLNMMYLQMNSLKPEDTAVYYCNLVLVNGIPTRNWGQGTQVTVSS
notes: not shown: Fc of human IgG1 from vector pFUSE-hIgG1-Fc
B13: anti-human PD-L1 nanobody h_Nb2 (Fc fusion)
chain: DVQLQESGGGLVQPGGSLRLSCAASGFTFGDRWMYWLRQAPGKGLEWVSSINPAGRSTYYADSVKGRFTISRDNAKNTLYLQMNSLKSEDTAVYYCTKDPGGYQKGQGTQVTVSS
notes: as for B12
B14: anti-human PD-L1 nanobody h_Nb13 (Fc fusion)
chain: DVQLQESGGGLVQPGGSLRLSCAASGSIFSINAMGWYRQAPGKSRELVAAITSGGSTNYADSVKGRFTISRDTAKNTVYLLMNSLEPEDTAVYYCNVERRRPPHYLSEYDFDWGQGTQVTVSS
notes: as for B12
B15: anti-human PD-L1 nanobody h_Nb26 (Fc fusion)
chain: DVQLQESGGGLVQPGGSLRLSCAAPGSIFRINAMGWYRQAPGKQRELVAAITSGGSTNYADSVQGRFTISRDNAKNTVYLQMNSLKPEDTAVYYCNVERRRPPHYYSDYDFDWGQGTQVTVSS
notes: as for B12
B16: anti-human PD-L1 nanobody h_Nb1 (Fc fusion)
chain: DVQLQESGGGLVQPGGSLRLSCAASGFTFSSYAMSWVRQAPGKGLEWVSDINSGGDNTDYADSVKGRFTISRDNAKNTLYLQMNSLKPEDTAVYYCARGPKLCFSSWGQGTQVTVSS
notes: Cloned into pFUSE-mIgG2b-Fc and pFUSE-hIgG1-Fc; not shown: Fc of human IgG1 from vector pFUSE-hIgG1-Fc

These molecules were tested on induced high-expression PD-L1 CT26 tumor cell (assay: Combined anti-tumor effect of Nb16 and SZU-101, IFN-γ-induced CT26 subcutaneous tumor model). Conditions: Nb16 10 mg/kg intraperitoneal, SZU-101 3 mg/kg peritumoral.
Assay type: in vivo, BALB/c mouse
Protocol: The mouse CT26 tumor cells were recovered and passaged, it was ensured that tumor cells at least have been subjected to 3 generations during tumor-bearing, and mouse IFN-γ with a final concentration of 100 ng/mL was used to induce tumor cells for 24 h before tumor-bearing, so that the cell surface thereof highly expresses PD-L1; the induced high-expression PD-L1 CT26 tumor cell was inoculated subcutaneously into a female BALB/c mouse, wherein the inoculation amount was 1×10^6 cells/one; and randomly grouping mice into four groups (9 per group), i.e., a same-type control group (mFc), a nano-antibody Nb16 group (Nb16), a TLR7 agonist SZU-101 group (SZU-101) and a combined treatment group (NB16/SZU-101), wherein the administration amount of the mFc and the Nb16 was 10 mg/kg, and intraperitoneal administration was performed; and the administration amount of the SZU-101 was 3 mg/kg, and the tumor was administered circumferentially. The administration cycle were Nb16 administered on D1, D5, D9, D12, and D14 and SZU-101 administered on D9-D14 (3A). The body weight of the mouse and the tumor major diameter (L) and the short diameter (W) in the administration cycle were observed and recorded until the anatomical endpoint, and the tumor volume V=(L×W×W)/2 was calculated, a tumor growth curve was drawed, and the tumor inhibition rate was calculated; and the experiment was terminated on the fifteenth day. After performing euthanasia, the animal was dissected, and the subcutaneous tumor was taken out.

**Q.** `COCCOc1nc(N)c2nc(O)n(Cc3ccc(CNC(=O)CCC(=O)O)cc3)c2n1` [SZU-101] was tested. Which “Anti-tumor effect” value did it give?
**A.** significantly inhibit tumor growth

Same assay, conditions: Nb16 10 mg/kg intraperitoneal, SZU-101 3 mg/kg peritumoral; day 15

**Q.** `COCCOc1nc(N)c2nc(O)n(Cc3ccc(CNC(=O)CCC(=O)O)cc3)c2n1` [SZU-101] was tested. Which Tumor inhibitory rate did it give?
**A.** 49%

Same assay, conditions: individual mice, day 15; Nb16 10 mg/kg intraperitoneal, SZU-101 3 mg/kg peritumoral

**Q.** For `COCCOc1nc(N)c2nc(O)n(Cc3ccc(CNC(=O)CCC(=O)O)cc3)c2n1` [SZU-101], which “Endpoint tumor Weight” value is on record?
**A.** 0.298 g and 0.560 g and 0.330 g and 0.278 g and 0.354 g and 0.516 g and 0.286 g and 0.328 g and 0.426 g

What follows are molecules tested against PD-1/PD-L1 (Mus musculus, UniProt Q9EP73) (assay: In vitro activity of candidate nanobodies NB9, NB10, NB11, NB17 (blocking or non-blocking type)). Conditions: not given.
Assay type: binding

Sequence of PD-1/PD-L1 (Q9EP73 19-239): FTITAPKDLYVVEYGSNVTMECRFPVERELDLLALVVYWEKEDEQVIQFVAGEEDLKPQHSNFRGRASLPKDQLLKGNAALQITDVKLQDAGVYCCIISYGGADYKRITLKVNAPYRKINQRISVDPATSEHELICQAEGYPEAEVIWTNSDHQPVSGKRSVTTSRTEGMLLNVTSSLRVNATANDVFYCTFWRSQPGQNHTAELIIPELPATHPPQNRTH

**Q.** For B1, which “Blocking type or non-blocking type nanobody” value is on record?
**A.** blocking type

**Q.** B2 was tested. Which “Blocking type or non-blocking type nanobody” value did it give?
**A.** blocking type

**Q.** For B3, which “Blocking type or non-blocking type nanobody” value is on record?
**A.** non-blocking

**Q.** How did the “Blocking type or non-blocking type nanobody” value turn out when B4 was run?
**A.** non-blocking

The molecules below were run against T1, HEK293T/hPD-L1 (Homo sapiens, UniProt Q9NZQ7) (assay: Human PD-L1 binding activity assay of candidate anti-human PD-L1 nanobodies (flow cytometry)). Conditions: nanobody 10 μg/mL.
T1 construct: expressed in transfected cells; host or cells: HEK293T
Protocol: (§1) The cell strain HEK293T/hPD-L1 was digested, and centrifugationwas performed to remove the supernatant; the cells were washed one time with PBS and the cell density was adjusted to 2.5×10^6 cells/mL; each cell sample was added to a 100 μL cell suspension, that is, a 2.5×10^5 cell/sample was comprised; different anti-human PD-L1 candidate nanobodies (the concentration is 10 μg/mL) were respectively added to the samples; incubating for 20 min at 4° C.; centrifuging, removing supernatant, and the cells were washing once with PBS; using diluted antibody anti-human IgG Fc (FITC) as secondary antibody, and the cells were re-suspended; incubating at 4° C. for 20 min; centrifuging, removing supernatant, the cells were washing twice with PBS, and transferred to a flow tube; and was performed on-machine detection by using a flow cytometer to obtain the binding activity of the candidate nanobody and human PD-L1, as shown in FIG. 13.

T1 sequence (Q9NZQ7 19-290): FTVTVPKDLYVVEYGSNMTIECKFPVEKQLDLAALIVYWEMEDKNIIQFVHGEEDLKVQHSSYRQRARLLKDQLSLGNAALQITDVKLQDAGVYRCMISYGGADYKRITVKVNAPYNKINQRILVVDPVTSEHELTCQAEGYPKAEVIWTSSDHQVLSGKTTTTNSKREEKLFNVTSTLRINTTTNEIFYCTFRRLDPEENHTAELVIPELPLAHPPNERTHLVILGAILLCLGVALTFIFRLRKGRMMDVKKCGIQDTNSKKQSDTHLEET

**Q.** How did the “Binding activity with human PD-L1” value turn out when B5 was run?
**A.** good binding activity

**Q.** For B6, which “Binding activity with human PD-L1” value is on record?
**A.** good binding activity

**Q.** How did the “Binding activity with human PD-L1” value turn out when B7 was run?
**A.** good binding activity

**Q.** For B8, which “Binding activity with human PD-L1” value is on record?
**A.** good binding activity

**Q.** With B9 as the molecule, how does the “Binding activity with human PD-L1” value read?
**A.** good binding activity

**Q.** B10 was tested. Which “Binding activity with human PD-L1” value did it give?
**A.** good binding activity

**Q.** Which “Binding activity with human PD-L1” value does the source give for B11 here?
**A.** good binding activity

What follows are molecules tested against T2, human PD-L1 on cell strain HEK293T/hPD-L1 (human, UniProt Q9NZQ7 19-290) (assay: flow cytometry on HEK293T/hPD-L1, 10 µg/mL, anti-human IgG Fc (FITC)). Conditions: not given.
T2 construct: whole, on cells
Protocol: as §1, with “2.5×10⁶” for “2.5×10^6”, “2.5×10⁵” for “2.5×10^5”

T2 sequence (Q9NZQ7 19-290): as above

**Q.** Does B12 bind?
**A.** binds

**Q.** Does B13 bind?
**A.** binds

**Q.** Does B14 bind?
**A.** binds

**Q.** Does B15 bind?
**A.** binds

**Q.** Does B16 bind?
**A.** binds
